T1: PDGFR-beta extracellular domain construct D1-D2 (human)
T1 construct: also called D1-2
T1 chain: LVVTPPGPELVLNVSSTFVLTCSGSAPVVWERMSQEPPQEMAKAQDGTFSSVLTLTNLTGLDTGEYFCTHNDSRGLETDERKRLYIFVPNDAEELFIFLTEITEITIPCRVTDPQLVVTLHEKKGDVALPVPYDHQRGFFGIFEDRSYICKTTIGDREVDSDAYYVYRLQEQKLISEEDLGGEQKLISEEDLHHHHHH

T2: PDGFR-beta extracellular domain construct D1-D3 (human)
T2 construct: also called D1-3
T2 chain: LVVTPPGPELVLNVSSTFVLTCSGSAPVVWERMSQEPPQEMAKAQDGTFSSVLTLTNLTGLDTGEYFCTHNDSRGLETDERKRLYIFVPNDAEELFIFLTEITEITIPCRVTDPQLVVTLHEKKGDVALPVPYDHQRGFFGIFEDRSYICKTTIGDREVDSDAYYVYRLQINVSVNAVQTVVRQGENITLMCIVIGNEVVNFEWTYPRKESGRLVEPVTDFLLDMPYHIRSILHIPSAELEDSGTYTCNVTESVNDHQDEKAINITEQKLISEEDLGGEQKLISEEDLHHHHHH


What was measured:
[1] = biological target: T1, PDGFR-beta extracellular domain …; experiment: SPR, mAb captured, construct at 50nM
Description: (§1) Four different anti-PDGFR-beta antibodies were tested for binding to the various constructs by surface plasmon resonance (Biacore). Briefly, 150-200 RU's of anti-PDGFR beta antibody was captured via an anti-human Fc CM5 chip. Next, the individual domain constructs, or full-length PDGFR beta, was applied over the antibody-bound surface at a concentration of 50nM. The ability of the various antibodies to bind to the various domain constructs was measured. (−)=No binding observed; (+)=Binding observed; ND=Not determined.

[2] = biological target: T2, PDGFR-beta extracellular domain …; experiment: SPR, mAb captured, construct at 50nM
Description: as §1

binding result [1] | binding result [2] | Binder
binds | binds | H4H3094P (antibody, human IgG4, V domains shown, also called H4H3394P) VH: EVQLVESGGGLVQPGGSLRLSCAASGFTFSSYWMSWVRQAPGKGLEWVANMNQDGSETHYVDSVKGRLSISRDNAKKSLFLHMNSLRAEDTAVYFCARDLVPPRQDDYYYYFGMDVWGHGTTVTVSS VL: DIQMTQSPSTLSASVGDRVTITCRASQSISDWLAWYQQKPGKAPKLLIFKASTLESGVPSRFSGSGSGTEFTLTISSLQPDDFATYYCQQYNSYSRTFGQGTKVEIK
binds | binds | H4H3374N (antibody, human IgG4, V domains shown, human IgG4 Fc (H4H prefix)) VH: QLQLQESGPGLVKPSETLSLTCTVSGGSITSSSYYWGWIRQPPGKGLEWIGSIYYRGSTNYNPSLKSRVTISVDSSKNQFYLKVSSVTAVDTAVYYCARQNGAARPSWFDPWGQGTLVTVSS VL: EIVLTQSPDTISLSPGERATLSCRASQSISSIYLAWYQQKPGQAPRLLIYGASSRVTGIPDRFSVSGSGTDFTLTISRLEPEDFAVYYCQHYGISPFTFGPGTKVDIR
